Measurements published in patent US20030216297A1, “Pharmaceutical composition” (SANKYO COMPANY, LIMITED, priority 2002, published 2003).

Tested on: not listed separately
Assay: Degree of adsorption to a heparin cross-linked column
Assay type: physicochemical
Conditions: applied and washed with 0.7 M NaCl, eluted with 2 M NaCl in 10 mM sodium phosphate buffer; OCIF by ELISA
Excerpt: A preferred feature of the complexes used in the present invention that can be used to characterise them is their affinity to heparin. Heparin is a polysaccharide comprising D-glucosamine, D-glucuronic acid and D-iduronic acid which is partially or fully derivatised with sulfate and acetyl groups. A preferred feature of the complexes employed in the present invention is that the strength of adsorption of said complex of OCIF or an anlogue or variant thereof to heparin is lower than the strength of adsorption of the free, non-complexed OCIF or analogue or variant thereof. The degree of adsorption can be determined using a column packed with highly cross-linked. linked agarose beads on which has been immobilized heparin (e.g. heparin obtained from bovine intestinal mucosa). Suitable columns of this type include HiTrap heparin HP column, HiPrep 16/10 Heparin and Heparin Sepharose (all obtainable from Amersham Pharmacia). The strength of adsorption (the affinity) of the complex can be determined according to any suitable method that is well known to the person skilled in the art for determining the affinity of proteins to polysaccharides. […] Thus, typically the degree of adsorption of the complex to heparin can be determined as follows:
(a) A column packed with a support such as cross-linked agarose beads on which has been immobilized heparin is equilibrated with a buffer having a relatively low ionic strength (e.g. sodium phosphate buffer containing 0.1-0.8 M sodium chloride).
(b) The complex of the present invention that is being tested is dissolved in the same low ionic strength buffer as used in (a) and applied to the column and a first eluate is then collected (fraction A).
(c) The column is then washed further with the same low ionic strength buffer as used in step (a) and a second eluate is collected (fraction B).
(d) The column is then washed with a buffer having a relatively high ionic strength (e.g. sodium phosphate buffer containing 1.0-2.0 M sodium chloride) and a third eluate is then collected (fraction C).
(e) The amount of the complex present in each of fractions A, B and C [designated (α), (β) and (γ) respectively] is then determined (e.g. by an immunoassay).
(f) The degree of adsorption of the complex to heparin is then determined according to the following formula: [formula]
The degree of adsorption of the complexes of the present invention as measured by the above formula will vary to some extent depending upon the type of heparin column and the conditions under which the determination is carried out.
A heparin cross-linked column (HiTrap Heparin HP column, Lot. 289212, Amersham Bioscience) was pre-equilibrated with 5 ml of 10 mM sodium phosphate buffer containing 0.7 M sodium chloride. A preparation from Table 1 of Preparation Example 1 was taken and diluted to a final protein concentration of 0.1 mg/ml with 10 mM sodium phosphate buffer containing 0.7 M sodium chloride. 1 ml of the diluted solution thus obtained was applied to said column and 1 ml of a first eluate was collected (fraction A). Next, 5 ml of 10 mM sodium phosphate buffer containing 0.7 M sodium chloride were applied to said column and 5 ml of a second eluate were collected (fraction B). Finally, 4 ml of 10 mM sodium phosphate buffer containing 2M sodium chloride were applied to said column and 4 ml of an eluate were collected (fraction C).
100 μL of 0.1 M sodium hydrogen carbonate (pH 9.6), in which was dissolved an anti-human OCIF monoclonal antibody OI-19 (FERM BP-6420) at a concentration of 10 μg per ml, were transferred to each well of a 96-well microtitre plate (Maxisorp: NUNC Co Ltd.). The plate was sealed and then incubated at 4° C. overnight. At the end of this incubation time, the solution in each well was removed by decantation, 300 μL of 50% Block Ace (purchased from Dainippon Pharmaceutical Co., Ltd.) were added to each well, and then the plate was incubated at room temperature for 2 hours. […]
For “Prep. 27: OCIF/DS5 complex: DS5 150 mg/ml, OCIF 5 mg/ml, 4 °C, pH 10.5, 144 h”, the “The degree of adsorption of the OCIF/DS complex to a heparin cross-linked column” value (shortened to “The degree”) was 0.141. In the case of “Prep. 8: OCIF/DS5 complex: DS5 130 mg/ml, OCIF 6.5 mg/ml, 4 °C, pH 10.5, 288 h”, the “The degree” value is reported as 0.153. With “Prep. 25: OCIF/DS5 complex: DS5 130 mg/ml, OCIF 6.5 mg/ml, 4 °C, pH 10.5, 24 h” the “The degree” value was 0.611. In the case of “Prep. 24: OCIF/DS5 complex: DS5 150 mg/ml, OCIF 5 mg/ml, 25 °C, pH 10, 24 h”, the “The degree” value is reported as 0.072. In the case of “Prep. 6: OCIF/DS5 complex: DS5 130 mg/ml, OCIF 6.5 mg/ml, 4 °C, pH 10.5, 48 h”, the “The degree” value is reported as 0.451. In the case of “Prep. 22: OCIF/DS5 complex: DS5 150 mg/ml, OCIF 5 mg/ml, 7 °C, pH 10.5, 168 h”, the “The degree” value is reported as 0.264. In the case of “Prep. 7: OCIF/DS5 complex: DS5 130 mg/ml, OCIF 6.5 mg/ml, 4 °C, pH 10.5, 144 h”, the “The degree” value is reported as 0.183.

Tested on: adjuvant-arthritis Lewis rat
Assay: Adjuvant arthritis in Lewis rats, femur bone mineral density: OCIF complex with loxoprofen sodium
Assay type: in vivo
Conditions: distal ends of femurs, day 21 after adjuvant; loxoprofen sodium 5 mg/kg p.o. and/or Preparation 11 0.1 mg/kg i.p. daily, days 14 to 20
Experimental: This example was carried out according to the method described in C. V. Winder, et al. Arthritis Rheum 12 472 (1957). Heat-killed cells of Mycobacterium butyricum were pulverized in an agate mortar and then suspended in liquid paraffin sterilized with hot air to give a suspension having a cellular concentration of 2 mg/ml. This suspension was then subjected to ultrasonication so as to produce an adjuvant. 50 μl of the obtained adjuvant were injected intradermally at each of two sites in the base of the tail of a Lewis rat (eight-weeks old, female) (200 μg in total per rat), to induce arthritis in said rat. […] As a control, instead of the loxoprofen sodium, OCIF complex Preparation 11 or a combination thereof, only the solvents used for dissolving them were administered to the rat. […] The bone mineral densities of the distal ends of the right-and-left femurs were measured using an X-ray measurement apparatus (Dual energy X-ray absorptiometry DCS-600R, manufactured by Aroka Co., Ltd.), and the average of each of the measured values was calculated, and was defined as the bone mineral density of the individual. In order to evaluate the differences between the averages of the bone mineral densities of each group, significant difference was tested by Student's t-test, and the P value was calculated.
With “Prep. 11: OCIF/DS5 complex: DS5 100 mg/ml, OCIF 5 mg/ml, 4 °C, pH 10.5, 18 h” the “Bone mineral density (average ± standard error)” value was 109.6 ± 2.1 mg/cm^2. In the case of `CC(C(=O)O)c1ccc(CC2CCCC2=O)cc1` (stereo not shown) [Loxoprofen sodium, loxoprofen sodium, reference compound], the “Bone mineral density (average ± standard error)” value is reported as 106.5 ± 0.8 mg/cm^2.

Tested on: not listed separately
Assay: Measurement of isoelectric point by isoelectric electrophoresis gel
Assay type: physicochemical
Conditions: IEF PAGE mini gel, pH range 3 to 10, compared with pI markers
Excerpt: The isoelectric point can be measured using any conventional isoelectric electrophoresis technique well-known to the skilled person in the art. OCIF is a basic protein and the isoelectric point thereof is about pI 9. […] Therefore, it is possible to readily distinguish complexed and uncomplexed OCIF using this technique.
The purified recombinant dimeric human OCIF, prepared as described in Preparation Example 1(a) above and the complex of OCIF and dextran sulfate prepared in Preparation Example 1(b) above which is designated Preparation Number 22 in Table 1 were applied separately to an isoelectric electrophoresis gel IEF PAGE mini (pH range of 3 to 10, manufactured by Iwaki Glass), using an IEF pH 3-7 buffer kit (Technical Frontier Co.) and a voltage was applied to the gel according to the following regime: 100 V for 1 hour, followed by 200 V for 1 hour and finally 500 V for 30 minutes. After completion of the electrophoresis, the resultant gel obtained in each case was stained with Coomassie Blue.
From the electrophoresis gels obtained above, it was determined that the isoelectric point of the dimeric human OCIF was about pI 9, and the isoelectric point of the complex of OCIF and dextran sulfate designated Preparation Number 22 was about pI 6.5 by comparing the band position of OCIF and that of the OCIF complex with pI markers.
With “OCIF: recombinant dimeric human osteoclastogenesis inhibitory factor, molecular weight about 120000, non-complexed” the “isoelectric point (pI)” value was roughly 9. With “Prep. 22: OCIF/DS5 complex: DS5 150 mg/ml, OCIF 5 mg/ml, 7 °C, pH 10.5, 168 h” the “isoelectric point (pI)” value was roughly 6.5.

Tested on: adjuvant-arthritis Lewis rat
Assay: Adjuvant arthritis in Lewis rats, femur bone mineral density: OCIF complex with celecoxib
Assay type: in vivo
Conditions: distal ends of femurs, day 21 after adjuvant; celecoxib 1 mg/kg p.o. and/or Preparation 22 3.5 mg/kg i.p. daily, days 14 to 20
Experimental: Arthritis was induced in test groups of Lewis rats (eight-weeks old, female) according to the same procedure described in Example 2 above.
From the 14th to 20th days after injection of the adjuvant, celecoxib [Thomas D, P., et al., J. Med. Chem., 40, 1347-1365 (1997); WO-A-95/15316] suspended in a 0.5% tragacanth aqueous solution (manufactured by Nihon Funmatsu Yakuhin Co., Ltd.) at a concentration of 0.2 mg/ml was orally administered to each rat of one test group at a rate of 5 ml/kg each day so that the dose of […] administered was 1 mg/kg body weight. […]
Each rat was dissected on the 21 st day after injection of the adjuvant, and the right-and-left femurs were extracted. The bone mineral densities of the distal ends of the right-and-left femurs were measured using an X-ray measurement apparatus (Dual energy X-ray absorptiometry DCS-600R, manufactured by Aroka Co., Ltd.), and the average of each of the measured values was calculated, and was defined as the bone mineral density of the individual.
In order to evaluate the differences between the averages of the bone mineral densities of each group, significant difference was tested by Student's t-test, and the P value was calculated.
With `Cc1ccc(-c2cc(C(F)(F)F)nn2-c2ccc(S(N)(=O)=O)cc2)cc1` [Celecoxib, celecoxib, reference compound] the “Bone mineral density (average ± standard error)” value was 103.0 ± 1.8 mg/cm^2. With “Prep. 22: OCIF/DS5 complex: DS5 150 mg/ml, OCIF 5 mg/ml, 7 °C, pH 10.5, 168 h” the “Bone mineral density (average ± standard error)” value was 104.2 ± 2.1 mg/cm^2.
